Read-outs that look alike come from different tables or passages of the source.
Tests used:
[1] = biological target: MBP-OsCRT3 (Oryza sativa (rice)); assay: SPR
[2] = biological target: MBP-OsCBL8 (Oryza sativa (rice)) (UniProt Q3HRN9); assay: SPR
[3] = biological target: MBP-OsCRT3 (Oryza sativa (rice)); assay: SPR; remark: listed apart in the source
[4] = biological target: MBP-OsCBL8 (Oryza sativa (rice)) (UniProt Q3HRN9); assay: SPR; remark: listed apart in the source
[5] = biological target: T1, GST-OsCIPK7 (Oryza sativa (rice), UniProt Q75GK4 1-447); assay: pull-down
T1 sequence: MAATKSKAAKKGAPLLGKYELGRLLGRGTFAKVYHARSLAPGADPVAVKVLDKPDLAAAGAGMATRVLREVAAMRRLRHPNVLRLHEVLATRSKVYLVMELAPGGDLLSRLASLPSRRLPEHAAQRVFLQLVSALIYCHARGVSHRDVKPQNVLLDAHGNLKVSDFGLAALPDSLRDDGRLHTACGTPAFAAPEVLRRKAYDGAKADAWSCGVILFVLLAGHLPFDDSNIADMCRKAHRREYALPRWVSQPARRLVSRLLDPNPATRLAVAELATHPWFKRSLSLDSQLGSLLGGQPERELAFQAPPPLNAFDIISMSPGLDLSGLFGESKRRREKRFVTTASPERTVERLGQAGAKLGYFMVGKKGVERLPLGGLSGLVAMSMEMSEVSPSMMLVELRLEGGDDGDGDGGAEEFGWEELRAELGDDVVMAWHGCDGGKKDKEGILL

## GST-OsCIPK7-C (domain or fragment)
[1]
  Kd: 6490 nM
  koff: 0.00157 s⁻¹
  kon: 256 M⁻¹ s⁻¹
[2]
  Kd: 340 nM
[3]
  Kd: 920 nM
  koff: 0.00077 s⁻¹
  kon: 684 M⁻¹ s⁻¹
[4]
  Kd: 390 nM

B1: MBP-OsCBL8 (natural protein)
chain: MGCVSSKQFKRAAQHEDPAILAKETTFSVSEVEALFELFKKISHSIFRDGLIHKEEFQLALFRNSNKKNLFANRIFDLFDLKRNGVIDFGEFVRSLSIFHPETPLGDKIAFAFRLYDLRGTGCIEREELHEMVLALLNESDLFLSEEAVEQIVDQTFKQADLNDDGKIDPDEWKTFASKNPALLKNMTLPYLKDITMVFPSFILNSEVCEEEL
[5]
  binding result: binds

B2: MBP-OsCBL7 (natural protein)
chain: MGCISSKQFKRAAEHEDPAILAKETTFSVSEVEALYELFKKISHSIFKDGLIHKEEFQLALFRNSNKKNLFADRIFDLFDLKRNGVIDFGEFVRSLNIFHPETPLAEKIAFAFRLYDLRGTGYIEREELYEMVLAILNESDLLLSDDAVEQIVDQTFKQADLNSDGKIDPDEWKAFASKNPALLKNMTLPYLKDITMAFPSFVLNSGVDDEEL
[5]
  binding result: binds

Source: PMC9811624 (The EMBO Journal, 2022)
